Laboratory results as given in publication PMC1257591, “In Vitro Inhibition of Human Hepatic and cDNA-Expressed Sulfotransferase Activity with 3-Hydroxybenzo[a]pyrene by Polychlorobiphenylols” (Environmental Health Perspectives, 2005).

What was measured:
Assay type in all cases: biochemical, human
[1] = substrate: Oc1ccc2ccc3c4ccccc4cc4ccc1c2c43; assay: Kinetics of 3-OH-BaP sulfonation by partially purified cDNA-expressed SULT1E1; conditions: other: apparent, 3-OH-BaP as substrate
Excerpt: (§1) The expression of human SULT1A1*1, SULT1A3, SULT1B1, and SULT1E1 in Escherichia coli has been described previously ([Dajani et al. 1998]; [Wang et al. 1998]). We grew E. coli cells containing the respective sulfotransferase genes as described previously ([Falany et al. 1990], [1994]), and prepared 100,000g supernatant fractions for use in inhibition studies and for partial purification of the SULT enzymes. We purchased expressed SULT1A1*2 cytosolic extract from PanVera (Madison, WI) and used it as supplied.
(§2) The 100,000g supernatant fractions of SULT1A1*1, SULT1A3, SULT1B1, and SULT1E1 were partially purified by chromatographic methods ([Falany et al. 1990], [1994]). After the last step, a 3′-phosphoadenosine 5′-phosphate (PAP)-agarose affinity column, we dialyzed the fractions eluted with PAP with three changes of buffer to remove PAP before the assay of SULT activity with 3-OH-BaP as substrate. We analyzed active fractions by SDS-PAGE ([Laemmli 1970]) to assess the purity of each SULT enzyme. We stained the gels with Coomassie R-250 reagent and determined the percentage of protein present as each respective SULT enzyme by scanning densitometry.
(§3) We determined SULT activity with 3-OH-BaP as substrate by a fluorimetric assay of BaP-3-SO4 product formation, as described previously ([Wang et al. 2004]). […] Duplicate tubes were prepared for each incubation condition. We examined the kinetics of sulfonation in three liver cytosol fractions by systematically varying the concentration of 3-OH-BaP or PAPS. When the variable substrate was 3-OH-BaP, we used 12 concentrations in the range from 0.035 to 2.00 μM, and the concentration of PAPS was kept constant at 10 μM. […]
(§4) We determined the kinetic parameters for 3-OH-BaP sulfonation by partially purified preparations of the cDNA-expressed SULT isozymes under incubation conditions similar to those used for liver cytosol. […]
(§5) We calculated the enzyme kinetic parameters from studies with variable concentrations of 3-OH-BaP using nonlinear regression analysis and GraphPad 4.0 software (GraphPad Software, San Diego, CA). […]

[2] = substrate: Oc1ccc2ccc3c4ccccc4cc4ccc1c2c43; assay: Kinetics of 3-OH-BaP sulfonation by expressed SULT1A1*2; conditions: other: expressed SULT1A1*2; two-substrate model
Excerpt: as §1
as §3, with “PAPS.” for “PAPS. When the variable substrate was 3-OH-BaP, we used 12 concentrations in the range from 0.035 to 2.00 μM, and the concentration of PAPS was kept constant at 10 μM.”
as §4, §5

[3] = substrate: Oc1ccc2ccc3c4ccccc4cc4ccc1c2c43; assay: Kinetics of 3-OH-BaP sulfonation by partially purified cDNA-expressed SULT1A1*1; conditions: other: apparent; partially purified SULT1A1*1; 3-OH-BaP as substrate
Excerpt: as §1, §2, §3, §4, §5

[4] = substrate: Oc1ccc2ccc3c4ccccc4cc4ccc1c2c43; assay: Kinetics of 3-OH-BaP sulfonation by partially purified cDNA-expressed SULT1A3; conditions: other: apparent, 3-OH-BaP as substrate
Excerpt: as §1, §2, §3, §4, §5

B1: SULT1E1 (Homo sapiens) (protein)
chain: MNSELDYYEKFEEVHGILMYKDFVKYWDNVEAFQARPDDLVIATYPKSGTTWVSEIVYMIYKEGDVEKCKEDVIFNRIPFLECRKENLMNGVKQLDEMNSPRIVKTHLPPELLPASFWEKDCKIIYLCRNAKDVAVSFYYFFLMVAGHPNPGSFPEFVEKFMQGQVPYGSWYKHVKSWWEKGKSPRVLFLFYEDLKEDIRKEVIKLIHFLERKPSEELVDRIIHHTSFQEMKNNPSTNYTTLPDEIMNQKLSPFMRKGITGDWKNHFTVALNEKFDKHYEQQMKESTLKFRTEI
notes: made in house; host or cells: Escherichia coli
B1 gave a Km [1] of 0.05 µM, a Vmax [1] of 0.00835 µmol/min/mg and a Vmax/Km [1] of 167000 µL/min/mg.

B2: SULT1A1*2 (Homo sapiens; R213H) (protein)
chain: MELIQDTSRPPLEYVKGVPLIKYFAEALGPLQSFQARPDDLLISTYPKSGTTWVSQILDMIYQGGDLEKCHRAPIFMRVPFLEFKAPGIPSGMETLKDTPAPRLLKTHLPLALLPQTLLDQKVKVVYVARNAKDVAVSYYHFYHMAKVHPEPGTWDSFLEKFMVGEVSYGSWYQHVQEWWELSRTHPVLYLFYEDMKENPKREIQKILEFVGHSLPEETVDFVVQHTSFKEMKKNPMTNYTTVPQEFMDHSISPFMRKGMAGDWKTTFTVAQNERFDADYAEKMAGCSLSFRSEL
notes: purchased PanVera (Madison, WI); host or cells: Sf-9
B2 showed a Km [2] of 0.022 µM.

B3: SULT1A1*1 (Homo sapiens) (protein)
chain: MELIQDTSRPPLEYVKGVPLIKYFAEALGPLQSFQARPDDLLISTYPKSGTTWVSQILDMIYQGGDLEKCHRAPIFMRVPFLEFKAPGIPSGMETLKDTPAPRLLKTHLPLALLPQTLLDQKVKVVYVARNAKDVAVSYYHFYHMAKVHPEPGTWDSFLEKFMVGEVSYGSWYQHVQEWWELSRTHPVLYLFYEDMKENPKREIQKILEFVGRSLPEETVDFVVQHTSFKEMKKNPMTNYTTVPQEFMDHSISPFMRKGMAGDWKTTFTVAQNERFDADYAEKMAGCSLSFRSEL
notes: as for B1
Work on B3 yielded a Km [3] of 0.018 µM, a Vmax [3] of 0.00689 µmol/min/mg and a Vmax/Km [3] of 383000 µL/min/mg.

B4: SULT1A3 (Homo sapiens) (protein)
chain: MELIQDTSRPPLEYVKGVPLIKYFAEALGPLQSFQARPDDLLINTYPKSGTTWVSQILDMIYQGGDLEKCNRAPIYVRVPFLEVNDPGEPSGLETLKDTPPPRLIKSHLPLALLPQTLLDQKVKVVYVARNPKDVAVSYYHFHRMEKAHPEPGTWDSFLEKFMAGEVSYGSWYQHVQEWWELSRTHPVLYLFYEDMKENPKREIQKILEFVGRSLPEETMDFMVQHTSFKEMKKNPMTNYTTVPQELMDHSISPFMRKGMAGDWKTTFTVAQNERFDADYAEKMAGCSLSFRSEL
notes: as for B1
Protein B4 has a Km [4] of 2.90 µM, a Vmax [4] of 0.333 µmol/min/mg and a Vmax/Km [4] of 115000 µL/min/mg.
